No end group written: not given here. *: point of attachment. FITC = O=C1OC2(c3ccc(O)cc3Oc3cc(O)ccc32)c2ccc(NC(=S)*)cc21

The test has as its target T1, avidin (UniProt P02701 25-152).
T1 construct: also called avidin of a bar code 01
The experiment in a line: FITC-peptide incubated with protein-coated bar-coded carriers; fluorescence read in flow tube. The protocol:
Carriers of 15 mm in length having a bar code 01 or 02 were prepared by using polymethylmethacrylate fibers as a raw material and introducing carboxyl groups on the surface thereof in the same manner as in Example 1. As in Example 1, 50 carriers having a bar code 01 were dispersed in 10 ml HEPES buffer, 100 μmol hydroxysuccinimide was added thereto, followed by the addition of 100 μmol WSC to succinimidate carboxyl groups, and after washing the carriers with the same buffer, 10 ml of a buffer containing 1 μmol/ml avidin was immediately added thereto to immobilize avidin on the carriers. The carriers were subjected to blocking in 1% BSA solution, and washed with distilled water to prepare carriers to which avidin is bound and which have a bar code 01.
Similarly, a FITC-labeled polypeptide having the […] shown in SEQ ID NO: 7 which consists of 15 amino acids without containing avidin-binding peptide sequence and having FITC at the amino-terminus was synthesized and dissolved in PBS containing 0.1% BSA at a concentration of 2 nmol/ml to prepare a test sample solution.
An apparatus shown in FIGS. 1 and 2 was prepared, and the bar code and fluorescence were detected while passing the solutions prepared in (3) above through a hollow tube in the detection device. As the bar code reader, a hand laser scanner SL-114 (product of Nichiei Intec) was used. […]

T1 sequence (P02701 25-152 limits assumed): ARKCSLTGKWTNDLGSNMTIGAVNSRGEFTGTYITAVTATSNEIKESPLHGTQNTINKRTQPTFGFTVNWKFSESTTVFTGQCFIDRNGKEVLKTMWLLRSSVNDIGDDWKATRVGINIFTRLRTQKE

With {FITC}-ISFENTWLWTSPFSS [FITC-labeled polypeptide of SEQ ID NO: 7 (15 amino acids without avidin-binding peptide sequence)], the binding result is on record as “no binding”.

For the origin of these results see patent publication US20050112564A1 (published 2005).
